According to PMC5704366:

Target: mononucleosome assembled with an octamer lacking the H4 tail (human) (UniProt P0C0S8)
Experiment: pull-down

## HIV-1 integrase, wild type (from UniProt P12497 1148-1435) (enzyme)
  percent less efficient binding than to native MN: 50 to 60%
